According to the RNAGym collection of RNA variant scans (doi:10.7554/elife.80360):

B1: CPEB3 Ribozyme (parent)
chain: GGGGGCCACAGCAGAAGCGUUCACGUCGCGGCCCCUGUCAGAUUCUGGUGAAUCUGCGAAUUCUGCUGU

Variants of: B1
Test: self-cleavage, relative activity (ratio to wild type); higher = more cleavage; co-transcriptional

Going from A23G U62G to A23G U62C, the self-cleavage falls from 0.75 to 0.667.

Compared with A23G U67C, A23G U67G is higher in self-cleavage: 0.925 for the first, 0.992 for the second.

Compared with A23G U67A, C24A G37C is lower in self-cleavage: 1.03 for the first, 0.264 for the second.

Going from C24A G37A to A23G G37C, the self-cleavage falls from 0.229 to 0.214.

Going from A23G G37U to C24A G30U, the self-cleavage falls from 0.22 to 0.159.

Going from C24A G30A to A23U C33A, the self-cleavage rises from 0.217 to 0.876.

First: A23U C33G
Second: C24G G37C
The self-cleavage of the first is higher: 0.773 for the first, 0.219 for the second.

First: C24G G37A
Second: A23G G47U
The self-cleavage of the first is lower: 0.131 for the first, 0.991 for the second.

First: A23G G47A
Second: A23G G47C
The self-cleavage of the first is higher: 0.996 for the first, 0.944 for the second.

Going from C24A U36A to C24A U36G, the self-cleavage rises from 0.173 to 0.205.

First: C24G G47U
Second: C24G G47A
The self-cleavage of the first is higher: 0.508 for the first, 0.491 for the second.

Going from A23U C27A to A23U C27G, the self-cleavage falls from 0.734 to 0.164.

First: A23U C27U
Second: C24G U49C
The self-cleavage of the first is lower: 0.29 for the first, 0.523 for the second.

First: C24G U38G
Second: C24G U38C
The self-cleavage of the first is lower: 0.215 for the first, 0.413 for the second.

Compared with A23G G41C, A23G G41A is higher in self-cleavage: 0.581 for the first, 0.676 for the second.

Compared with A23G G41U, A23U G31U is higher in self-cleavage: 0.798 for the first, 0.842 for the second.

Compared with A23U G31C, C24A C35G is lower in self-cleavage: 0.215 for the first, 0.173 for the second.

First: A23U U67C
Second: A23U U67A
The self-cleavage of the first is higher: 1 for the first, 0.975 for the second.

Going from A23U U67G to C24G U26C, the self-cleavage falls from 0.979 to 0.386.

Compared with A23U C32U, A23U C32G is lower in self-cleavage: 1.01 for the first, 0.71 for the second.

Compared with C24G U43A, C24G U43C is lower in self-cleavage: 0.348 for the first, 0.309 for the second.

Going from C24A G58U to C24A G58A, the self-cleavage falls from 0.773 to 0.4.

First: C24G U53A
Second: C24G U53C
The self-cleavage of the first is higher: 0.339 for the first, 0.235 for the second.

Going from C24G U53G to C24A U44C, the self-cleavage rises from 0.177 to 0.628.

First: C24A U44G
Second: C24A U44A
The self-cleavage of the first is lower: 0.615 for the first, 0.705 for the second.

First: C24G C34G
Second: C24G C34U
The self-cleavage of the first is lower: 0.184 for the first, 0.57 for the second.

First: C24G C34A
Second: C24G
The self-cleavage of the first is lower: 0.271 for the first, 0.499 for the second.

Going from C24A to A23U A52C, the self-cleavage rises from 0.77 to 1.04.

Going from A23U A52G to A23U A52U, the self-cleavage rises from 0.642 to 0.996.

Compared with A23U C39A, A23U C39G is higher in self-cleavage: 0.87 for the first, 1.02 for the second.

Going from A23U C39U to A23U G56A, the self-cleavage rises from 0.921 to 1.01.

Going from A23U G56U to A23U G56C, the self-cleavage falls from 0.955 to 0.936.

First: C24A U61C
Second: A23U G41U
The self-cleavage of the first is lower: 0.374 for the first, 0.868 for the second.

Going from A23U G41C to A23U G41A, the self-cleavage falls from 0.912 to 0.821.

First: A23U C66U
Second: A23U C66G
The self-cleavage of the first is higher: 0.964 for the first, 0.848 for the second.

Going from A23U C24A to C24G G48U, the self-cleavage falls from 0.888 to 0.528.

Compared with A23G G65C, A23G G65U is higher in self-cleavage: 0.537 for the first, 0.554 for the second.

Going from A23G G65A to A23G U38A, the self-cleavage rises from 0.752 to 0.897.

Compared with A23G U38C, A23G U38G is lower in self-cleavage: 0.946 for the first, 0.245 for the second.

First: A23U U53C
Second: A23U U53A
The self-cleavage of the first is higher: 0.928 for the first, 0.903 for the second.

Compared with A23U U53G, A23U G47U is higher in self-cleavage: 0.959 for the first, 0.983 for the second.

Compared with A23U G47A, A23U U55C is lower in self-cleavage: 1.02 for the first, 0.953 for the second.

Going from C24A U26G to C24A U26A, the self-cleavage falls from 0.283 to 0.257.

Compared with C24G U61G, C24G U61C is lower in self-cleavage: 0.306 for the first, 0.284 for the second.

First: C24G U61A
Second: C24G G31A
The self-cleavage of the first is lower: 0.173 for the first, 0.185 for the second.

Going from C24G G31C to C24A A60G, the self-cleavage rises from 0.134 to 0.35.

Compared with C24A A60U, C24A A60C is higher in self-cleavage: 0.252 for the first, 0.283 for the second.

Going from C24G A52G to A23G U43G, the self-cleavage rises from 0.527 to 0.721.

Compared with A23G U43A, A23G U43C is higher in self-cleavage: 0.877 for the first, 0.937 for the second.

First: A23G G50C
Second: A23U G48A
The self-cleavage of the first is higher: 1.01 for the first, 0.984 for the second.

Compared with A23U G48U, C24G G28A is lower in self-cleavage: 1.01 for the first, 0.14 for the second.

Going from C24G G68U to C24G G68A, the self-cleavage rises from 0.699 to 0.725.

Compared with C24G G50C, C24G G50U is higher in self-cleavage: 0.347 for the first, 0.441 for the second.

Going from C24G G50A to C24A A51G, the self-cleavage rises from 0.392 to 0.754.

Going from C24A A51C to A23U A59G, the self-cleavage rises from 0.68 to 0.972.

Going from C24A C27A to C24A C27G, the self-cleavage falls from 0.16 to 0.105.

First: C24A A42G
Second: A23U G30C
The self-cleavage of the first is lower: 0.53 for the first, 0.786 for the second.

Compared with A23U G30A, A23U G30U is lower in self-cleavage: 0.96 for the first, 0.547 for the second.

Compared with C24G G41C, C24G G25A is higher in self-cleavage: 0.18 for the first, 0.22 for the second.

Going from C24G G25C to C24A A40G, the self-cleavage rises from 0.152 to 0.591.

Going from C24A A40C to C24G C39U, the self-cleavage falls from 0.31 to 0.217.

First: A23U C57U
Second: A23U C57A
The self-cleavage of the first is lower: 0.28 for the first, 0.288 for the second.

Compared with C24G A59G, C24G A59U is lower in self-cleavage: 0.518 for the first, 0.225 for the second.

First: C24G A59C
Second: A23U U43A
The self-cleavage of the first is lower: 0.141 for the first, 0.954 for the second.

First: A23U U43C
Second: A23U A40C
The self-cleavage of the first is higher: 0.931 for the first, 0.678 for the second.

Going from A23U A40G to A23U A40U, the self-cleavage falls from 0.951 to 0.924.

Compared with A23U U46C, A23U U46G is higher in self-cleavage: 0.964 for the first, 1 for the second.

Compared with A23U U46A, C24A C57U is lower in self-cleavage: 0.955 for the first, 0.248 for the second.

Compared with C24A C57G, A23U U44A is higher in self-cleavage: 0.219 for the first, 0.963 for the second.

First: A23U U44G
Second: A23U U44C
The self-cleavage of the first is higher: 0.882 for the first, 0.869 for the second.

Compared with A23U C54A, A23U C54G is higher in self-cleavage: 0.901 for the first, 0.943 for the second.

First: A23U C54U
Second: C24G G58C
The self-cleavage of the first is higher: 1.02 for the first, 0.248 for the second.

Compared with C24G G58A, A23U U64A is higher in self-cleavage: 0.247 for the first, 0.943 for the second.

First: A23U U64G
Second: C24A C34G
The self-cleavage of the first is higher: 0.917 for the first, 0.227 for the second.

Going from C24A C34A to A23G U26A, the self-cleavage rises from 0.262 to 0.773.

First: A23G U64A
Second: C24G C35G
The self-cleavage of the first is higher: 0.753 for the first, 0.116 for the second.

Going from C24G C35U to A23G G48U, the self-cleavage rises from 0.261 to 0.972.

First: A23G G48C
Second: C24A G68A
The self-cleavage of the first is higher: 0.975 for the first, 0.87 for the second.

Going from C24A G68U to C24A U62A, the self-cleavage falls from 0.834 to 0.364.

First: C24A U62C
Second: C24G A40G
The self-cleavage of the first is higher: 0.402 for the first, 0.363 for the second.

First: C24G A40C
Second: C24A G48A
The self-cleavage of the first is lower: 0.198 for the first, 0.758 for the second.

First: C24A G48C
Second: C24A G48U
The self-cleavage of the first is higher: 0.786 for the first, 0.737 for the second.

Compared with C24A U38A, C24A U38C is higher in self-cleavage: 0.393 for the first, 0.517 for the second.

With C24A U38G the self-cleavage was 0.196.
